Assay [1] addresses Recombinant SARS-CoV-2 RBD protein (E. coli) (SARS-CoV-2, UniProt P0DTC2). In words: BLI.
The target of another assay is SARS-CoV RBD (SARS-CoV, strain , UniProt P59594). In words: BLI.

B1: 2H04, anti-SARS-CoV-2 mAb (IgG) (antibody, V domains shown)
VH: EVQLQQSGAELVKPGASVKMSCKASGYTFTSYWITWVKQRPGQGLEWIGDIYPGSGSTKYNEKFRSEATLTVDTSSTTAYMQLSSLTSEDSAVYYCARWDFYGSRTFDYWGQGTTLTVSS
VL: DIVLTQSPAILSVSPGERVSFSCRASQNIGTIIHWYQQRTNGSPRLLIKYASESVSGIPSRFSGSGSGTDFTLSINSVESEDIADYYCQQSSSWPLTFGAGTKLEL
The term Kd denotes the equilibrium constant for the complex coming apart. With B1, in assay [1], the Kd was found to be 40.1 nM and the half-life of dissociation worked out at 1.27 min.

B2: 2B04, anti-SARS-CoV-2 mAb (IgG) (antibody, V domains shown)
VH: QVQLKQSGPGLVAPSQSLSITCTVSGFSLINYAISWVRQPPGKGLEWLGVIWTGGGTNYNSALKSRLSISKDNSKSQVFLKMNSLQTDDTARYYCARKDYYGRYYGMDYWGQGTSVTVS
VL: QAVVTQESALTTSPGETVTLTCRSSTGAVTTSNYANWVQEKPDHLFTGLIGGTNNRAPGVPARFSGSLIGDKAALTITGAQTEDEAIYFCALWYNNHWVFGGGTKLTVL
For the molecule B2, the binding result in the assay with SARS-CoV RBD is recorded as “no binding”. Moreover, in assay [1], the Kd was 1.05 nM and the half-life of dissociation was 23.7 min.

Source of the values: paper PMC8498651 (Cell Reports, 2021).
